{
  "source": "the DeepSol protein solubility set",
  "data": [
    {"test": "soluble on expression in E. coli; label from the status in PepcDB or PDB records", "values": [
      {"sequence": "MAHHHHHHMDDERTTAAGRITSTNVREEEPSITVPCELDTHIEQHERRKRGRVWTAEEQAAYWREKKEKQRQRKKAAAAERREMQQKEWEALSQSERERRRAEAIAVHEKRRGAEMRLQQLCQEHLADAKLPVLVFDLSFAWCMNASDCRSTVSQVKLSYSALRRHAFPLRPVITSIGGSADGEMACAHSDVLQSLCTFNGFSRYPLPVHENHWSSLYDLQRVVFLTADAEVVLERIEQGTVYIVGAFVDHNARKFLTRDAAIRYGVRMARLPIDESIKVGNICKVLTVNHVVDVLCRYTECGDWSTAFDVLPTRRTVSRRERRTNAHISMSSNTVFGECDSVDTDETGGTTRVASGQAD", "soluble on expression in E. coli": "not soluble"},
      {"sequence": "MAHHHHHHMDEIKWPLRLLQILRNHLEQVDHPHEPRTLPIAAKCGQGGVLAFLTDVDDDVRRRTGASECITACCRGLVLDMIEQCCTLLFLSSKERRVINMAAVQREKRVVARGVGKRRRGDQGETTEETAIGETDNSQRKCAAVLPLEYLLRLFVALPSLLAHYDKLGGSTMPAAFKQPLWNYVNAVLDIMKDMTFLDPSEYIPLR", "soluble on expression in E. coli": "not soluble"},
      {"sequence": "MAHHHHHHMDGAYGMRTVLNSSRLEEEPKYTLNPADLPHSSMNANNMMNGAVLTNGYHTSDYVINRESYPPDMMPQFKIDQGGSAYNNTMPMNSIIHTDPNESINMQGMKTCLETTTGFDSYRNLMNYNNTQNTIQASQVPFHLDDYNSGADLMYMSHPHTGDNFSPDYLNNLRSTETDPMTYGNNFNIPNGQFNSMLGENNNYNSLPYSMPIFENMNNPQMYMQQMNSKQALSGPTQKMDHTCSIRKMPAVSKRKIKPKKFFPCC", "soluble on expression in E. coli": "soluble"},
      {"sequence": "MAHHHHHHMDSDLSAEIARIEAELAQDAELRQQQQQLAPQQPPASLFGFGQTAPVQPQQQQQQQLFQTQPPQPQQQPSNPFNVNASPFMPTPQQPDYSQQQQQQQQPIGSAGQAAAQASAPTPIIHSFSKDTDSRSIFIGNLPRGTDGTPTTTPEELVQFFADCGNILNCTVLKDRATGEPKGTAYIEFADYTAMGKAIDTKNNANFKGSTIIVCVSTSPLFSLAGFFG", "soluble on expression in E. coli": "soluble"},
      {"sequence": "MAHHHHHHMEAKLSSALRTCDKCRTYADLCRTFEAKVSPIVEQALQSPLVKAPRDHTTPDECSPRVAELREALCTRLGADKATPAEDDVWFLIYRTVSNFVERQQRKRSRDQDGTSLSTLVTNCFVLLCTRTLPQLDHMKLRWGFLKKERAALESSDAYVHSNASERRKLQLNATSVLSVFSERAHKHSFTFVWMLCVEKAGEAALHVHLLHRVGSVVLPYLTNPLVLADYLTGCFSSGGIISILSLQGLFLLMLDHGLEYPNYYEQLYSLLTPDVFASRYRYELFRLLDLSMTSLRVPSYIAASVIKRVAQVSLMAPAPTLYFSLPFLRKVLQSHPNCLALIHRSSREAVIPDDMADQDTDTVTAQSAKAQAMRDTAALFDGRDPFDDRAKLLETHALSSTLWELTALERHFMPVVPLMVSAFSSTAEDKTPLRYEKSYGRLFTAEVTRAIDCHNLPTIAYEAPSEADPTDLLSL", "soluble on expression in E. coli": "soluble"},
      {"sequence": "MAHHHHHHMEAPTDNDSMQAGPVVVGHADGVLTMPSEDFASLHLQPIQDDTWIRNAEIVHMENFVETEDGKRIKREILKEYVEEKERQGTFHPDPILEGMIYQEKFMEAYRTNGRSVDADKAHSYRLKLLETHRRARAIENADT", "soluble on expression in E. coli": "not soluble"},
      {"sequence": "MAHHHHHHMEIKTASKIVRRVSNVEAFDKSGSVFKGYQIWTDISPTIENDPNIMFVKCVVQQGSKKEKLTVVQIDPPGTGTPYDIDPTHAWNCNSQVDPMSFGDIGLLNHTNIPCVLDFLKHRYLKNQIYTTAVPLIVAINPYKDLGNTTNEWIRRYRDTADHTKLPPHVFTCAREALSNLHGVNKSQTIIVSGESGAGKTEATKQIMRYFASSKSGNMDLRIQTAIMAANPVLEAFGNAKTIRNNNSSRFGRFMQLVISHEGGIRYGSVVAFLLEKSRIITQDDNERSYHIFYQFLKGANSTMKSKFGLKGVTEYKLLNPNSTEVSGVDDVKDFEEVIESLKNMELSESDIEVIFSIVAGILTLGNVRLIEKQEAGLSDAAAIMDEDMGVFNKACELMYLDPELIKREILIKVTVAGGTKIEGRWNKNDAEVLKSSLCKAMYEKLFLWIIRHLNSRIEPEGGFKTFMGMLDIFGFEVFKNNSLEQLFINITNEMLQKNFVDIVFERESKLYKDEGISTAELKYTSNKEVINVLCEKGKSVLSYLEDQCLAPGGTDEKFVSSCATNLKENNKFTPAKVASNKNFIIQHTIGPIQYCAESFLLKNKDVLRGDLVEVIKDSPNPIVQQLFEGQVIEKGKIAKGSLIGSQFLNQLTSLMNLINSTEPHFIRCIKPNENKKPLEWCEPKILIQLHALSILEALVLRQLGYSYRRTFEEFLYQYKFVDIAAAEDSSVENQNKCVNILKLSGLSESMYKIGKSMVFLKQEGAKILTKIQREKLVEWENCVSVIEAAILKHKYKQKVNKNIPSLLRVQAHIRKKMVA", "soluble on expression in E. coli": "not soluble"},
      {"sequence": "MAHHHHHHMEKNQNDKSNKNDIIHMNDKSGNYDKNNINNFIDKNDEHDMSDILHKINNEEKKYEEIKSYSECLELLYKTHALKLGLDNPKKLNESFGHPCDKYKTIHIAGTNGKGSVCYKIYTCLKIKKFKVGLFSSPHIFSLRERIIVNDEPISEKELIHLVNEVLNKAKKLYINPSFFEIITLVAFLHFLNKKVDYAIIETGIGGRLDATNILTKPEVIVITSIGYDHLNILGDNLPIICNEKIGIFKKDANVVIGPSVAIYKNVFDKAKELNCTIHTVVPEPRGERYNEENSRIALRTLEILNISIDYFLKSIIPIKPPLRIQYLATEQIQHIKKKFSPDNLEHNVQYPLAVILDVGHNETAIDRLCTDINYFHKGQNIRICISITKPRNLSVFHPFIAQFGDTLKDIFYLPSLNERTYDFEEIVEMLNNEEEIKNEIKELILSSSKKVGKWLAHEKQGNINEEDALKLYKRGCIPLIIKNAFLECCKDNSILLVCGTFFVFDEVLNVFDIHSDMQDTIFMNEPSLV", "soluble on expression in E. coli": "soluble"},
      {"sequence": "MAHHHHHHMFSFYIYRKKTISWDEVTINEQDKERGSRMKILEPNTPFNFILMDSASEDEASKYGDVKGSDEGQNNIADDLINKLNQLVEKQENKGVSNIDFKEKRKKHYNEYKMLQKLRKSGTLDDIDEEYKPDNKDSNCDNSVSQEFPCYIARNFVVISL", "soluble on expression in E. coli": "not soluble"},
      {"sequence": "MAHHHHHHMFSRTGFRCAPVVEDVVAAFKVLGLAYNPRAPASSRPGVDDVRRQYLEMARLHHPDLSSGDDNRMKVINTAYELIQSSGILHGAYDAPAGAREGVAGQQGGEAGTATRFARKAGARRRRMPDDFASGDDSSWSMKTSLDWQAIMNSTETLSDEEMKNPANHPFSHSKFFTFEDDLTIYRMICGGATVRQVARSLGKPATFIERRLQNAQFKLRVQYVLRQDKRKSTAASSNGAASSGSMQQTTSTTITEPATRRALRRSPYEDAHVSSTVRKREWEPSYPEWRAPRYRDQMTLEEQGRLDGLLRETPRAAHAAGKSVSSLHSARRSAASKMGRSYENYKRLRPSF", "soluble on expression in E. coli": "not soluble"},
      {"sequence": "MAHHHHHHMGFFKKNKRQSFNRNYEGEVQCNNIILGGTFYKHCENDLLLKNELENLVPYFNGRIFLENKEEIGKVDEILGPINEFYFSVKLKEGIRAKSFSSDTHFFIDKSQTLPLSRFLPQEKNSQSLVKKKKKKSNRDKKKNSFNQNNKKPNNYNFKGNNNRNDHNNRNDHNNRNDHNNRNDHNNRNDRNNRNNKNSFRNRSNSSRKFNNQRGRF", "soluble on expression in E. coli": "not soluble"},
      {"sequence": "MAHHHHHHMGGDVTFSLTKTRDTFADWFDAIMDAAELVDRRYPVKGCVVFRPYGFFMENAIMRLCEEEYAKVGISQILFPTVIPESFLKKESDHIKGFEAECFWVEKGGLQPLEERLALRPTSETAIYSMFSKWVRSYKDLPLKIHQTCTIFRHETKNTKPLIRVREIHWNEAHCCHATAEDAVSQLSDYWKVIDTIFSDELCFKGQKLRRVCWDRFPGADYSEVSDVVMPCGRVLQTAGIHNLGQRFSSTFDILYANKANESVHPYLTCAGISTRVLACALSIHGDSGGLVLPPLIAPIHVVIIPIGCGKKNNQESDQQVLGKVNEIADTLKSKLGLRVSIDDDFSKSMGDKLYYYELKGVPLRIEVGQRDLANGQCIVVPRDVGKDQKRVIPITEVMKVSSHTTENHELVVKNVIKDELDAYKARLKEKAFAFHNSMVTNCKSFDEIVACIENKGGLARFPFYTTEADGEVWDKKLKDACSAEIRGHNPDENVLPGEVCALSGKPAVCYMYCAKSY", "soluble on expression in E. coli": "soluble"},
      {"sequence": "MAHHHHHHMGKHMNNQDFAETEQAARAIRKLLNGEIDTIKLENGNKLKIRSSDEKDDAHKRHNDKTNYSFIDNSEEENVQTNLLRKNETVDAGSKIVEDQEDFYILDNESIEAIANKISMENKFHEFEAEAFAQSLKDIIRSLNN", "soluble on expression in E. coli": "soluble"}
    ]}
  ]
}
